Experimental findings from patent publication US20240141048A1 (DYNAMICURE BIOTECHNOLOGY, published 2024) are described below.

Sequences and labels used below:
T1: His-tagged human VISTA extracellular domain protein (in house) (human, UniProt Q9H7M9 33-194)
T1 construct: also called human VISTA ECD; hVISTA; not shown: His tag
T1 sequence: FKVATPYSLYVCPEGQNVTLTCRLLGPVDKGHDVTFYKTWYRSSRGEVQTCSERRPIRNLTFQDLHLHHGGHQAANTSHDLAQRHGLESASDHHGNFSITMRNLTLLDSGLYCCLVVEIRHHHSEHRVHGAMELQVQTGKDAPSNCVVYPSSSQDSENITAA

T2: human VISTA full length on Jurkat cells (human, UniProt Q9H7M9 33-311)
T2 construct: also called Jurkat-hVISTA
T2 sequence: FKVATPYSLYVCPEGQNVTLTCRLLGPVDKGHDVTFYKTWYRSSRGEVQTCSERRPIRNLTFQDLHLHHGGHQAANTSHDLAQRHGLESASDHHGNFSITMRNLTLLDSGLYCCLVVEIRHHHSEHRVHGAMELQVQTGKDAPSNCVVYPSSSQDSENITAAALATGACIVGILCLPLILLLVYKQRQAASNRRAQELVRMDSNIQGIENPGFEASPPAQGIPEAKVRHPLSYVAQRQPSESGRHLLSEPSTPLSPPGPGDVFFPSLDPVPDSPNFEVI

T3: His-tagged mouse VISTA extracellular domain protein (in house) (mouse, UniProt Q9D659 33-191)
T3 construct: extracellular domain; also called mouse VISTA ECD; mVISTA; not shown: His tag
T3 sequence (looked up): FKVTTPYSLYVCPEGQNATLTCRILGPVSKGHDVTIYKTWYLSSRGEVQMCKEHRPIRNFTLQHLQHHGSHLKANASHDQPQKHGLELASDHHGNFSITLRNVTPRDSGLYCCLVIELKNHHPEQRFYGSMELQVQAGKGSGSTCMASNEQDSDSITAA

T4: mouse VISTA full length on Jurkat cells (mouse, UniProt Q9D659 33-308)
T4 construct: whole, on cells; also called Jurkat-mVISTA
T4 sequence (looked up): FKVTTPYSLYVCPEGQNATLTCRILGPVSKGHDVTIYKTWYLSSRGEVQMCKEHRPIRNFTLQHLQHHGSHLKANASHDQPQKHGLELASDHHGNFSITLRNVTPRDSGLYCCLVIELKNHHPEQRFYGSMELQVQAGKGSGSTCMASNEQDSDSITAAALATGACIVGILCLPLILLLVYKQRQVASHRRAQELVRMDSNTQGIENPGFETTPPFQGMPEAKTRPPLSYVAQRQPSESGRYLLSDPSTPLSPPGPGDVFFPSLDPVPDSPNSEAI

B1: anti-VISTA antibody 15D11 (antibody, V domains shown)
VH: EVQLQQSGSELVKAGASVKLSCTASGFKIKDTFIHWVKQRPEQGLDWIGRIDPANGNSKYDPKFQGKATITADTSSNTAYLQLSSLTSEDTAVYYCARWPSNWEAMDYWGQGTSVTVSS
VL: QIVLTQSPAIMSASPGEKVTMTCSASSSVSYMYWYQQKPGSSPRLLIYDTSNLASGVPFRFSGSGSGTSYSLTISRMEAEDAATYYCQQWISYPLTFGTGTKLELK
notes: Mouse monoclonal from hybridoma
B2: anti-VISTA antibody 9F9 (antibody, V domains shown)
VH: QVQFQQSGAELARPGASVKLSCKASGYTFTGYWMQWVKQRPGQGLEWIGAIYPGDGDTRYSQKFKGKVTLTADKSSSTAYMQLSSLASEDSAVYYCARRDYGAWFAYWGQGTLVTVSA
VL: DIKVTQSPSSMYASLGERVTITCKASQDINSYLSWFQQKPGKSPKTLIYRANRLVDGVPSRFSGSGSGQDYSLTISSLDYEDMGIYYCLQYDEFPYTFGGGTKLEIK
notes: Mouse monoclonal
B3: anti-VISTA antibody 17E9 (antibody, IgG1, V domains shown)
VH: QVQLQQSGAELMKPGASVKISCTATGYTFSSCWIEWVKQRPGHGLEWLGEILPGSDYTNYNEKFKDKATFTADTSSDTAYMQLSSLTSEDSAVYYCARRPPGWYFDVWGAGTAVTVSS
VL: DIVMTQSHKFMSTSVGDRVSITCKASQDVSTDIAWYQQKPGQSPKLLIYSASYRFTGVPDRFTGSGSGTDFTFTISSVQAEDLAVYYCQHQYSTPWTFGGGTKLDIK
notes: Mouse monoclonal; Tested as hybridoma supernatant and as recombinant mIgG1
B4: anti-VISTA antibody 16A1 (antibody, IgG1, V domains shown)
VH: QVQLQQSGAELMKPGASVKISCKATGYTFSSSWIEWVKQRPGHGLEWIGEIFPGSGSLNFNEKFKGKATFTADTSSNTAYLQLSSLTSDDSAVYYCARRPPGWFFDVWGAGTTVTVSS
VL: B3 VL with S30T, I33V, F55Y, A84T, H90Q, Q91H, T94S, D105E
notes: as for B3
B5: anti-VISTA antibody 20E4 (antibody, IgG1, V domains shown)
VH: B4 VH with I34V, K38R, L58T, N59H, F60Y
VL: B3 VL with I33V, F55Y, H90Q, Q91H, D105E
notes: as for B3

Where a chain is given by its changes, count along the chain named. Some results are limits rather than exact numbers.

One assay deals with human VISTA extracellular transmembrane-CD3zeta chimera on Jurkat-nfkb-GFP reporter cells (human, UniProt P20963 52-164). The assay is described as follows: cell-based or functional assay.
B1: the “percentage of activated Jurkat-NFKb-GFP/hVISTA-hCD3z cells in the presence of OKT3 (3 ng/ml)” value was no more than 60%.

Turning to B2, the “percentage of activated Jurkat-NFKb-GFP/hVISTA-hCD3z cells in the presence of OKT3 (3 ng/ml)” value was greater than 60%.

In the next assay the target is T1, His-tagged human VISTA extracellular …. Briefly: ELISA, hybridoma supernatant on coated human VISTA ECD (2 µg/ml). The protocol: (§1) 50 μl of hybridoma supernatant was incubated with human VISTA ECD (2 μg/ml), mouse VISTA ECD (2 μg/mL), cynomolgus VISTA (2 μg/mL), or negative mouse IgG1 control coated on 96 well ELISA plates. Mouse anti-VISTA antibodies were detected by anti-mouse IgG-HRP (Jackson ImmunoResearch, Cat. # 615035214).
A general note: In an ELISA, binding on a coated surface is turned into a signal by an enzyme label.
For the molecule B1, the binding result is reported as “binds”.

Take B2: the binding result is listed as “binds”.

On to B3, for which the binding result is reported as “binds”.

Regarding B4, the binding result is on record as “binds”.

Regarding B5, the binding result was “binds”.

For a further assay, the target named is T2, human VISTA full length on Jurkat cells. Briefly: flow cytometry, hybridoma supernatant on Jurkat cells expressing human VISTA. The protocol:
(§2) Human and mouse VISTA expressing Jurkat cells were cultured in RPMI1640 with 10% FBS. Cells were seeded into a 96 well plate at 1×10⁵ cells/well. Then the cells were incubated with anti-VISTA hybridoma supernatants for 30 minutes at 4° C. […] After washing with FACS buffer, the cells were incubated with Alexa Fluor 647 conjugated anti-mouse IgG(H+L)(1 μg/ml) (Jackson ImmunoResearch, Cat. #61505214) for 30 minutes at 4° C. After washing with FACS buffer twice, the samples were run in a NovoCyte Flow Cytometer (Agilent). Data was analyzed using the NovoExpress Software.
(A flow cytometer gives signals particle by particle.)
In the case of B2, the binding result is reported as “binds”.

With B3, the binding result was “binds”.

On to B4, for which the binding result is given as “binds”.

For the molecule B5, the binding result was “binds”.

The next assay deals with T3, His-tagged mouse VISTA extracellular …. The assay is described as follows: ELISA, hybridoma supernatant on coated mouse VISTA ECD (2 µg/mL). The protocol:
as §1
With B1, the binding result is given as “binds”.

Turning to B2, the binding result is “binds”.

For the molecule B3, the binding result was “binds”.

For the molecule B5, the binding result is “binds”.

The target of another assay is T4, mouse VISTA full length on Jurkat cells. Briefly: flow cytometry, hybridoma supernatant on Jurkat cells expressing mouse VISTA. The protocol:
as §2
With B2, the binding result is given as “binds”.

On to B3, for which the binding result is reported as “binds”.

Take B5: the binding result is “binds”.
